# Results taken from patent publication US10947272B2, “BACE1 inhibitor peptides” (HOFFMANN-LA ROCHE INC., priority 2015, dated 2021).
# Where two headings read alike, the source gives them in different places. Numbered stars: 1 amine (or outer) side, 2 acyl side, 3 side chain; on linkers, the order of the positions; unused ones are H or OH. Square brackets hold non-standard residues; d marks the D form. Ends that are not written are not given here. Peptide text beside a SMILES is read from it. MetSta(3S,4S) = CSCC[C@H](N[*:1])[C@@H](O)CC(=O)[*:2]; Sta = CC(C)C[C@H](N)[C@@H](O)CC(=O)O; PEG4 = NCCOCCOCCOCCOCCC(=O)O
# B1: Ac-Gly-Asp-Tyr-Pro-Lys-Phe-Ile-Pro-Ala-Ser-NH2 (peptide)
# peptide: Ac-GDYPKFIPAS-NH2
# B2: Glu-Val-Asn-Sta-Val-Ala-Glu-DPro-NH2 × TFA (peptide)
# peptide: EVN[Sta]VAE[dP]-NH2
# modifications: also: TFA salt
# B3: Ac-Ser-Thr-Gly-Ala-Arg-Phe-Ile-Pro-Ala-Asn-NH2 (peptide)
# peptide: Ac-STGARFIPAN-NH2
# B4: Glu-Val-Asn-MetSta-Val-Ala-Glu-DPhe-NH2 × TFA (peptide)
# peptide: EVN[MetSta(3S,4S)]VAE[dF]-NH2
# modifications: also: TFA salt
# B5: Ac-YPTFKPANGS-NH2 (peptide)
# peptide: Ac-YPTFKPANGS-NH2
# modifications: not fully specified; printed as Ac-YPTFKPANGS-NH2
# B6: Ac-Gly-Ser-Tyr-Pro-Lys-Phe-Ile-Asp-Ala-Asn-NH2 (peptide)
# peptide: Ac-GSYPKFIDAN-NH2
# B7: Glu-Val-Asn-Sta-Val-Ala-Glu-Phe-NH2 × TFA (peptide)
# peptide: EVN[Sta]VAEF-NH2
# modifications: also: TFA salt
# B8: Ac-Gly-Asp-Tyr-Pro-Lys-Phe-Ile-Ser-Ala-Asn-NH2 (peptide)
# peptide: Ac-GDYPKFISAN-NH2
# B9: Ac-Gln-Gln-Tyr-Pro-Tyr-Phe-Lys-Pro-Ala-Asn-NH2 (peptide)
# peptide: Ac-QQYPYFKPAN-NH2
# B10: Ac-Leu-Thr-Thr-Tyr-Pro-Tyr-Phe-Lys-Pro-Ala-NH2 (peptide)
# peptide: Ac-LTTYPYFKPA-NH2
# Key:
# [1] = target: BACE1 (Asp2, β-secretase, Memapsin-2) in HEK293 cells stably expressing human APP695 (UniProt P56817); assay: cell-based or functional assay
# BACE1 = target: T1, BACE1 (Homo sapiens, UniProt P56817); assay: Cellular Aβ-lowering assay (Aβ40 ELISA of culture supernatant); format: cell-based; conditions: HEK293 cells stably transfected with human APP wt (APP695), 18-20 hrs incubation, Aβ40 in supernatant
# T1 construct: Human HEK293 cells which are stably transfected with a vector expressing a cDNA of the human APP wt gene (APP695); endogenous in cells; host or cells: HEK293 (human), stably transfected with human APP695 wt cDNA
# Procedure: The compounds were investigated in accordance with the test given hereinafter. Cellular Aβ-Lowering Assay: Human HEK293 cells which are stably transfected with a vector expressing a cDNA of the human APP wt gene (APP695) were used to assess the potency of the compounds in a cellular assay. The cells were seeded in 96-well microtiter plates in cell culture medium (Iscove, plus 10% (v/v) fetal bovine serum, glutamine, penicillin/streptomycin) to about 80% confluence and the compounds were added at a 10× concentration in 1/10 volume of medium without FCS containing 8% DMSO (final concentration of DMSO was kept at 0.8% v/v). After 18-20 hrs incubation at 37° C. and 5% CO2 in a humidified incubator the culture supernatant was harvested for the determination of Aβ40 concentrations. 96 well ELISA plates (e.g., Nunc MaxiSorb) were coated with monoclonal antibody which specifically recognize the C-terminal end of Aβ40 (Brockhaus et al., NeuroReport 9, 1481-1486; 1998). After blocking of non-specific binding sites with e.g. 1% BSA and washing, the culture supernatants were added in suitable dilutions together with a horseradish peroxidase-coupled Aβ detection antibody (e.g., antibody 4G8, Senetek, Maryland Heights, Mo.) and incubated for 5 to 7 hrs. Subsequently the wells of the microtiter plate were washed extensively with Tris-buffered saline containing 0.05% Tween 20 and the assay was developed with tetramethylbenzidine/H2O2 in citric acid buffer. After stopping the reaction with one volume 1 N H2SO4 the reaction was measured in an ELISA reader at 450 nm wavelength. The concentrations of Aβ in the culture supernatants were calculated from a standard curve obtained with known amounts of pure Aβ peptide.
# [2] = target: T2, BACE1 (Asp2, β-secretase, Memapsin-2) in HEK293 cells stably expressing human APP695 (UniProt P56817 46-501, limits assumed); assay: cell-based or functional assay
# [3] = target: T2, BACE1 (Asp2, β-secretase, Memapsin-2) …; assay: cell-based or functional assay; remark: listed apart in the source
# [4] = IC 50, dual-site BACE1 inhibitors
# T2 sequence (P56817 46-501 limits assumed): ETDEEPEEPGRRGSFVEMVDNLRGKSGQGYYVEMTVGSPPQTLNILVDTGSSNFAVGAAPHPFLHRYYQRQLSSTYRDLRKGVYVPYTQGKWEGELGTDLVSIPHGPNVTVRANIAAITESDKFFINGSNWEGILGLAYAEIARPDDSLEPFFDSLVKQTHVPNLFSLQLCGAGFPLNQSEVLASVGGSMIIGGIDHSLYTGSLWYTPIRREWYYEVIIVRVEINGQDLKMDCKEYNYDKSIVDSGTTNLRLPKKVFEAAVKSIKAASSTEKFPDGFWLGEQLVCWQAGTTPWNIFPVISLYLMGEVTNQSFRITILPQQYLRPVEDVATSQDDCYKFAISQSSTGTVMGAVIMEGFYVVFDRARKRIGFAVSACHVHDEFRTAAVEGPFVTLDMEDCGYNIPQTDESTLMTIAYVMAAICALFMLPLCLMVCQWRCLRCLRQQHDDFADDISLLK
# T1 sequence (P56817 46-501): as the sequence (P56817 46-501 limits assumed) above
# BACE1 (Asp2, β-secretase, Memapsin-2) in HEK293 cells stably expressing human APP695 (UniProt P56817), sequence (P56817 46-501 limits assumed): as above
molecule,measurement,setting,value
H-YPY[dK]IPLG[dK]GEVN[Sta]VAE[dP]-NH2,"IC 50, cellular Aβ-lowering assay (Aβ40 in supernatant of HEK293 cells expressing human APP695)",[1],34.8 µM
"CC(C)C[C@H](NC(=O)[C@@H](CCCCN)NC(=O)[C@H](Cc1ccccc1)NC(=O)[C@H](Cc1ccc(O)cc1)NC(=O)[C@@H]1CCCN1C(=O)[C@@H](N)Cc1ccc(O)cc1)C(=O)NCCOCCOCCOCCOCCC(=O)N[C@@H](CCC(=O)O)C(=O)N[C@H](C(=O)N[C@@H](CC(N)=O)C(=O)N[C@@H](CC(C)C)[C@@H](O)CC(=O)N[C@H](C(=O)N[C@@H](C)C(=O)N[C@@H](CCC(=O)O)C(=O)N1CCC[C@@H]1C(N)=O)C(C)C)C(C)C [Example 23, H-Tyr-Pro-Tyr-Phe-DLys-Leu-PEG(4)-Glu-Val-Asn-Sta-Val-Ala-Glu-DPro-NH2 × 3TFA] (H-YPYF[dK]L[PEG4]EVN[Sta]VAE[dP]-NH2)",IC50,"BACE1; dual-site BACE1 inhibitors, read-out: IC 50",> 40 µM
"CC(C)C[C@H](NC(=O)[C@@H]1CCCN1C(=O)[C@@H](CCCCN)NC(=O)[C@H](Cc1ccccc1)NC(=O)[C@H](Cc1ccc(O)cc1)NC(=O)[C@@H]1CCCN1C(=O)[C@@H](N)Cc1ccc(O)cc1)C(=O)NCCOCCOCCOCCOCCC(=O)N[C@@H](CCC(=O)O)C(=O)N[C@H](C(=O)N[C@@H](CC(N)=O)C(=O)N[C@@H](CC(C)C)[C@@H](O)CC(=O)N[C@H](C(=O)N[C@@H](C)C(=O)N[C@@H](CCC(=O)O)C(=O)N1CCC[C@@H]1C(N)=O)C(C)C)C(C)C [Example 24, H-Tyr-Pro-Tyr-Phe-DLys-Pro-Leu-PEG(4)-Glu-Val-Asn-Sta-Val-Ala-Glu-DPro-NH2 × 2TFA] (H-YPYF[dK]PL[PEG4]EVN[Sta]VAE[dP]-NH2)",IC50,BACE1; [4],> 40 µM
"CC[C@H](C)[C@H](NC(=O)[C@@H](CCCCN)NC(=O)[C@H](Cc1ccc(O)cc1)NC(=O)[C@@H]1CCCN1C(=O)[C@@H](N)Cc1ccc(O)cc1)C(=O)N1CCC[C@H]1C(=O)N[C@@H](CC(C)C)C(=O)NCC(=O)N[C@H](CCCCN)C(=O)NCC(=O)N[C@@H](CCC(=O)O)C(=O)N[C@H](C(=O)N[C@@H](CC(N)=O)C(=O)N[C@@H](CC(C)C)[C@@H](O)CC(=O)N[C@H](C(=O)N[C@@H](C)C(=O)N[C@@H](CCC(=O)O)C(=O)N1CCC[C@@H]1C(N)=O)C(C)C)C(C)C [Example 33, H-Tyr-Pro-Tyr-DLys-Ile-Pro-Leu-Gly-DLys-Gly-Glu-Val-Asn-Sta-Val-Ala-Glu-DPro-NH2] (H-YPY[dK]IPLG[dK]GEVN[Sta]VAE[dP]-NH2)",IC50,BACE1; [4],34.8 µM
B1,"IC 50, cellular Aβ-lowering assay (Aβ40 in supernatant of HEK293 cells expressing human APP695)",[2],> 40 µM
B2,"IC 50, cellular Aβ-lowering assay (Aβ40 in supernatant of HEK293 cells expressing human APP695)",[3],> 40 µM
B3,"IC 50, cellular Aβ-lowering assay (Aβ40 in supernatant of HEK293 cells expressing human APP695)",[2],> 40 µM
B4,"IC 50, cellular Aβ-lowering assay (Aβ40 in supernatant of HEK293 cells expressing human APP695)",[3],> 40 µM
B5,"IC 50, cellular Aβ-lowering assay (Aβ40 in supernatant of HEK293 cells expressing human APP695)",[2],> 40 µM
B6,"IC 50, cellular Aβ-lowering assay (Aβ40 in supernatant of HEK293 cells expressing human APP695)",[2],> 40 µM
B7,"IC 50, cellular Aβ-lowering assay (Aβ40 in supernatant of HEK293 cells expressing human APP695)",[3],> 40 µM
B8,"IC 50, cellular Aβ-lowering assay (Aβ40 in supernatant of HEK293 cells expressing human APP695)",[2],> 40 µM
B9,"IC 50, cellular Aβ-lowering assay (Aβ40 in supernatant of HEK293 cells expressing human APP695)",[2],> 40 µM
B10,"IC 50, cellular Aβ-lowering assay (Aβ40 in supernatant of HEK293 cells expressing human APP695)",[2],14.4 µM
